Test results as given in patent publication US20180265890.

Tested on: T1, PiggyBac transposase with c-myc NLS
T1 sequence: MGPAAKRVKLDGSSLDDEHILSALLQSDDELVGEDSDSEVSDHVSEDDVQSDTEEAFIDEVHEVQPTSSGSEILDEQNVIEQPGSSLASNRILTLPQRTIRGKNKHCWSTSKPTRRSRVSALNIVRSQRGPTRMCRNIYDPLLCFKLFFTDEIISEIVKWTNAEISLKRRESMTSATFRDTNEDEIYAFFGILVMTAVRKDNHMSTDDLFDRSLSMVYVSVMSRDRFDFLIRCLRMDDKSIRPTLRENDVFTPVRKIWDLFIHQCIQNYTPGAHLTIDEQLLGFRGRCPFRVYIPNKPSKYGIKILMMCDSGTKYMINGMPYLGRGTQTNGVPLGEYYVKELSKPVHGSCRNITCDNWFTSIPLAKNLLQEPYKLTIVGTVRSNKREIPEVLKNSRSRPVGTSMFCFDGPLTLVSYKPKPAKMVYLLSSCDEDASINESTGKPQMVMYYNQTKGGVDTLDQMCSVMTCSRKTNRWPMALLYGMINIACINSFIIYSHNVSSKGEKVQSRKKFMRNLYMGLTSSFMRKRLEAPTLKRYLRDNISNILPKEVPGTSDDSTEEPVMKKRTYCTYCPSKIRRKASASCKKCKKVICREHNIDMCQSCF
Test: cell_activity
Details: pNB328-EGFP in Jurkat cells after 3 passages; both terminal repeats present together; K562 40.54%, primary T 56.9%, mouse ES 73.12%

Sequence | activity (% EGFP positive cells)
GCATGCGTCAATTTTACGCAGACTATCTTTCTAGGGTTAA (double strand) [PiggyBac 3'-terminal repeat] | 36.4
TTAACCCTAGAAAGATAATCATATTGTGACGTACGTTAAAGATAATCATGCGTAAAATTGACGCATG (double strand) [PiggyBac 5'-terminal repeat] | 36.4
